{
  "source": "paper PMC11374677",
  "about": "(Nature, 2024)",
  "binders": {"B1": {"name": "SARS-CoV-2 non-structural protein 4 (nsp4), wild type (natural protein)", "chain": "KIVNNWLKQLIKVTLVFLFVAAIFYLITPVHVMSKHTDFSSEIIGYKAIDGGVTRDIASTDTCFANKHADFDTWFSQRGGSYTNDKACPLIAAVITREVGFVVPGLPGTILRTTNGDFLHFLPRVFSAVGNICYTPSKLIEYTDFATSACVLAAECTIFKDASGKPVPYCYDTNVLEGSVAYESLRPDTRYVLMDGSIIQFPNTYLEGSVRVVTTFDSEYCRHGTCERSEAGVCVSTSGRWVLNNDYYRSLPGVFCGVDAVNLLTNMFTPLIQPIGALDISASIVAGGIVAIVVTCLAYYFMRFRRAFGEYSHVVAFNTLLFLMSFTVLCLTPVYSFLPGVYSVIYLYLTFYLTNDVSFLAHIQWMVMFTPLVPFWITIAYIICISTKHFYWFFSNYLKRRVVFNGVSFSTFEEAALCTFLLNKEMYLKLRSDVLLPLTQYNRYLALYNKYKYFSGAMDTTSYREAACCHLAKALNDFSNSGSDVLYQPPQTSITSAVLQ"}},
  "molecular_target": "SARS-CoV-2 non-structural protein 3 (nsp3), TwinStrep-EGFP tagged, wild type (SARS-CoV-2 (Wuhan-Hu-1), UniProt P0DTD1)",
  "test": "[…]",
  "data": [
    {"binder": "B1", "values": [
      {"measurement": "stoichiometry N", "result": "1 ratio nsp4:nsp3 (12:12 in the complex)"}
    ]}
  ]
}
